Assay [1] concerns the target T1, IL-6Rα expressed on lentivirally transduced HEK 293T cells (UniProt P08887 20-468, limits assumed).
T1 construct: whole, on cells; also called IL-6Rα^+ cells; IL-6Rα^+/IL-8R^- HEK 293T cells
T1 sequence (looked up): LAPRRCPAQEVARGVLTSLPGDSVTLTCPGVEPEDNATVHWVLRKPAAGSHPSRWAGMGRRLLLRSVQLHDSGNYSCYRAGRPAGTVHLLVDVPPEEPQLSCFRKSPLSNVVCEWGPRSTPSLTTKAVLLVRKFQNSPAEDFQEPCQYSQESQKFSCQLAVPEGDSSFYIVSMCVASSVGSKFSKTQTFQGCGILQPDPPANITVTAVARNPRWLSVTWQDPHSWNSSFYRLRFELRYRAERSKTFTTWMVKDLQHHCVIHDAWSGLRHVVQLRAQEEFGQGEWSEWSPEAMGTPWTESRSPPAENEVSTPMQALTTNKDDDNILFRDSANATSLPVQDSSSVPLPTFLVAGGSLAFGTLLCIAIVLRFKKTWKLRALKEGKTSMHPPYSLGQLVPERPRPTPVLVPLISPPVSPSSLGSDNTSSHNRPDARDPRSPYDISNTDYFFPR
Nature of the assay: flow cytometry binding titration on IL-6R+/IL-8R- HEK 293T cells, detected with FITC anti-human IgG1. The protocol:
(§1) HEK 293T cells were cultured in Dulbecco's modified Eagle's medium (DMEM, Mediatech) supplemented with 10% (Hyclone), 2 mM L-glutamine and 100 U/mL penicillin-streptomycin (Gibco). For surface binding assays, IL-6Rα⁺/IL-8R⁻, IL-6Rα⁻/IL-8R⁺, IL-6Rα⁺/IL-8R⁺, and […] HEK 293T cells were trypsinized for detachment, resuspended in PBSA, and then aliquoted into 96-well plates (1×10⁵ cells per well). Cells were incubated with titrations of various monoclonal or bispecific antibodies for 2 hr at 4° C. with rotation. Cells were then washed and incubated with a 1:50 dilution of fluorescein isothiocyanate (FITC)-conjugated anti-human IgG1 antibody (Sigma-Aldrich, Clone 8c/6-39) in PBSA for 15 min at 4° C. After a final wash, cells were resuspended in PBSA and analyzed on a CytoFLEX flow cytometer (Beckman Coulter). Binding isotherms were fitted to a first-order logistic model and KD values were calculated using GraphPad Prism data analysis software. Mean fluorescence intensity (MFI) of unstimulated cells was subtracted. […]
(§2) To determine whether engineered bispecific binding agents BS1 and BS2 specifically engage target antigens in a physiologically relevant context, antibody binding to IL-6Rα⁺/IL-8R⁻, IL-6Rα⁻/IL-8R⁺, IL-6Rα⁺/IL-8R⁺, and IL-6Rα⁻/IL-8R⁻ lentivirally transduced HEK 293T cells was measured via flow cytometry. […]
For orientation: A flow cytometer gives signals particle by particle.

The target of assay [2] is T2, IL-6Rα and IL-8R co-expressed on IL-6Rα^+/IL-8R^+ HEK 293T cells (UniProt P08887 20-468; P25025 1-360, limits assumed).
T2 construct: whole, on cells; Not a complex: two separate receptors on the same cell; also called IL-6Rα^+/IL-8R^+ 293T cells
T2 sequence (looked up) 1: T1 sequence (looked up)
T2 sequence (looked up) 2: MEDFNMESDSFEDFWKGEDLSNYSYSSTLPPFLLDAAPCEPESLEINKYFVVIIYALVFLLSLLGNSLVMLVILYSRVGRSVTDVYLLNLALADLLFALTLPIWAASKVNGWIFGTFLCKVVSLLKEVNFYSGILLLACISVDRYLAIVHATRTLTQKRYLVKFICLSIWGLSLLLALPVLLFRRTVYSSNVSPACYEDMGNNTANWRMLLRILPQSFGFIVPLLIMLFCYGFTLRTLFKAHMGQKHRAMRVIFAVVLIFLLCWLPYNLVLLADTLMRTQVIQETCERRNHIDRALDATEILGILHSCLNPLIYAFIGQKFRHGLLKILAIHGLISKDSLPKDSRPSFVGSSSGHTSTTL
Kind of assay: flow cytometry titration on IL-6Rα+/IL-8R+ HEK 293T cells (both targets present); IL-6Rα+/IL-8R+ 293T cells, both targets present (FIG. 7C). The protocol:
as §1, §2

B1: tocilizumab, recombinant monoclonal hIgG1 (anti-IL-6Rα) (antibody, V domains shown)
VH: EVQLQESGPGLVRPSQTLSLTCTVSGYSITSDHAWSWVRQPPGRGLEWIGYISYSGITTYNPSLKSRVTMLRDTSKNQFSLRLSSVTAADTAVYYCARSLARTTAMDYWGQGSLVTVSS
VL: DIQMTQSPSSLSASVGDRVTITCRASQDISSYLNWYQQKPGKAPKLLIYYTSRLHSGVPSRFSGSGSGTDFTFTISSLQPEDIATYYCQQGNTLPYTFGQGTKVEIK
notes: also called anti-IL-6Rα antibody
With B1, in assay [1], the EC50 (read off the curve) (commonly the concentration needed to bring the measured effect to its halfway point) was about 3 nM.

B2: BS2 bispecific antibody (scFv-IgG fusion: 10H2 IgG with tocilizumab scFv on the light chains) (bispecific antibody)
heavy: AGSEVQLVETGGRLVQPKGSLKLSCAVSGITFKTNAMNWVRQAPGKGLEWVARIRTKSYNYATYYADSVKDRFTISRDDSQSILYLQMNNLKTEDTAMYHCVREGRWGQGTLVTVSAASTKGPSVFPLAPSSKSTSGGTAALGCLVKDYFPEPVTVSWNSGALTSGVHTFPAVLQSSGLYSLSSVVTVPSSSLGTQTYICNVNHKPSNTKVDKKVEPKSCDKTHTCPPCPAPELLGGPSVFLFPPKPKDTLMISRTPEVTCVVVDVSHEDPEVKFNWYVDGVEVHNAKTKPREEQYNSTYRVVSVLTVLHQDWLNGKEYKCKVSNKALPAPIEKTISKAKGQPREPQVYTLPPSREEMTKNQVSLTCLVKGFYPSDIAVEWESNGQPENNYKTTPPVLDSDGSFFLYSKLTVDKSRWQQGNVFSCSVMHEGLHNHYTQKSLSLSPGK
light: AGSQAVVTQESALTTSPGETVTLTCRSSTGAVTTSNYANWVQEKPDHLFTGLIGGTNNRPPGVPARFSGSLIGDKAALTITGAQIEDEAIYFCALWYSNHLVFGGGTKLTVLRTVAAPSVFIFPPSDEQLKSGTASVVCLLNNFYPREAKVQWKVDNALQSGNSQESVTEQDSKDSTYSLSSTLTLSKADYEKHKVYACEVTHQGLSSPVTKSFNRGECGGGGSGGGGSEVQLQESGPGLVRPSQTLSLTCTVSGYSITSDHAWSWVRQPPGRGLEWIGYISYSGITTYNPSLKSRVTMLRDTSKNQFSLRLSSVTAADTAVYYCARSLARTTAMDYWGQGSLVTVSSGGGGSGGGGSGGGGSDIQMTQSPSSLSASVGDRVTITCRASQDISSYLNWYQQKPGKAPKLLIYYTSRLHSGVPSRFSGSGSGTDFTFTISSLQPEDIATYYCQQGNTLPYTFGQGTKVEIK
notes: Human IgG1-based
In the case of B2, the Kd (usually the constant that tells how readily two partners part at equilibrium) in assay [2] worked out at 3.4 nM.
